We go through 1 substance from publication PMC3020918.

For the assay, the target named is myc-Snc2p (S. cerevisiae) (UniProt P33328). Kind of assay: co-IP.
Sequence of UniProt P33328 (P33328 whole entry): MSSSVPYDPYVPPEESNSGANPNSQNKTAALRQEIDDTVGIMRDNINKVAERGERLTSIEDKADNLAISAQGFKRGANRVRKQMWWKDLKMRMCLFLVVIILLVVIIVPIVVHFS

“Sso1/2p (endogenous) (from UniProt P32867 1-290) (natural protein)” returned a percent reduction of co-precipitation, wt cells at 37°C against 30°C of 10%.
